Laboratory results as given in article doi:10.1101/2025.02.27.640518.

Target: nCBP-2^L51F (yeast two-hybrid fusion) (cassava)
Test: two-hybrid

CBSV Naliendele VPg fused to the B42 transcriptional activation domain (natural protein)
fold less reporter activity than with nCBP-2: 8 fold
